In patent US20150266968A1 (COMPLIX, published 2015):

Columns and labels:
[1] = molecular target: T1, GST-tagged recombinant human MCL-1 (residues 172 to 327) (human, UniProt Q07820 172-327); test: ELISA: Alphabody (500 nM) captured by immobilized anti-V5 antibody, five-fold dilutions of GST-MCL-1, detection with anti-GST-HRP, OD read at 492 nm and 630 nm
T1 construct: Produced in E. coli as an N-terminal GST fusion and purified using the GST-tag; also called recombinant MCL-1; GST-MCL-1; not shown: N-terminal GST tag and any linker or cleavage site between GST and MCL-1
T1 sequence (Q07820 172-327 limits assumed): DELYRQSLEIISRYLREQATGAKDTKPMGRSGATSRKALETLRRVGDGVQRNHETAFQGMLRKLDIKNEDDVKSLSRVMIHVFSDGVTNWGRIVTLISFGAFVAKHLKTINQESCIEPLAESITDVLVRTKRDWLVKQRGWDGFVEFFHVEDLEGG

[2] = molecular target: T2, GST-tagged recombinant human BCL-XL with a C terminal deletion of 24 amino acids (human, UniProt Q07817 1-209); test: ELISA: Alphabody (500 nM) captured by immobilized anti-V5 antibody, five-fold dilutions of GST-BCL-XL, detection with anti-GST-HRP, OD read at 492 nm and 630 nm
T2 construct: domain: BCL-XL with a C terminal deletion of 24 amino acids; Produced in E. coli as an N-terminal GST fusion; also called GST-BCL-XL; not shown: Glutathione S Transferase (GST) tag at the N-terminus
T2 sequence (Q07817 1-209, stated change not applied): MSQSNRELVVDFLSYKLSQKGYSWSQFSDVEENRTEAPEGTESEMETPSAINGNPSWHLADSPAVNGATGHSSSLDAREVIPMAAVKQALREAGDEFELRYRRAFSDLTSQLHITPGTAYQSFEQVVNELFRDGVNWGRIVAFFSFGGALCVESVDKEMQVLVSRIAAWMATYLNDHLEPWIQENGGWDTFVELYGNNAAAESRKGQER
Experimental: (§1) FIG. 13: Binding of recombinant BCL-2 family proteins to Alphabody AB1_pan_hiKR3-V5. Alphabody (500 nM) was captured by immobilized anti-V5 antibody (5 microg/ml) to a microtiterplate. Binding of five-fold dilutions of Glutathione S transferase (GST)-tagged recombinant BCL-2 family proteins MCL-1, BCL-XL and BCL-2a was detected using a anti-GST antibody conjugated to Horse Radish Peroxidase. Plates were read at 492 nm and 630 nm.
(§2) Maxisorp Nunc plates were coated with 100 microl anti-V5 antibody (5 microg/ml) in carbonate buffer pH 9.6 overnight at 4° C. The next day, plates were washed 3 times with Tris Buffered Saline containing 0.05% Tween 20 (TBST) and blocked with TBS containing 0.1% BSA and 0.5% gelatin for 2 h at 37° C. After washing plates 5 times with TBST, 500 nM AB1_pan_hiKR3-V5 Alphabody was added to the plates for 2 h at RT while shaking. Plates were washed 10 times with TBST and five-fold dilutions of Glutathione S transferase (GST) tagged recombinant BCL-2 family proteins (MCL-1, BCL-XL and BCL-2a) were added and further incubated for 2 h at RT while shaking. Binding of GST-tagged recombinant BCL-2 family proteins was detected using an anti-GST antibody conjugated to Horse Radish Peroxidase. […] Signals indicative for specific binding of AB1_pan_hiKR3-V5 to the particular BCL-2 family recombinant protein were read at 492 nm and 630 nm.

[3] = molecular target: T1, GST-tagged recombinant human MCL-1 …; test: ELISA: Alphabody (500 nM) captured by immobilized anti-V5 antibody, five-fold dilutions of GST-tagged recombinant protein, detection with anti-GST-HRP, OD read at 492 nm and 630 nm
Experimental: as §1, §2

[4] = molecular target: T2, GST-tagged recombinant human BCL-XL …; test: as above
Experimental: as §1, §2

| Binder | EC50 (read off the curve) [1] | EC50 (read off the curve) [2] | EC50 (read off the curve) [3] | EC50 (read off the curve) [4] | binding result [1] |
| --- | --- | --- | --- | --- | --- |
| Alphabody AB1_pan_hiKR3-V5 (designed binder, captured on the plate by anti-V5 antibody in the ELISA) MSIEEIQKQFKRIQKQIKRIAKQIKRMTGGSGGSGGMSIEEIAAQIAAIQLRIIGDQFNIYYMTGSGGGGSGGSIEEIKKSIRAIQKEIKKIQKKIKKMTPHHHHHHHHHHGKPIPNPLLGLDST | ~2 nM | ~5 nM | ~2 nM | ~5 nM |  |
| Alphabody AB1_A2aF_hiKR3-V5 (designed binder) MSIQQIQKQFKRIQKQIKRIEKQIKRMTGGSGGSGGMSIEEITKQIAAIQLRIVGDQVQIYAMTGGSGGGSGGGSGGGSGGSIEEIKKSIRAIQKEIKKIQKKIKKMTPHHHHHHHHHHGKPIPNPLLGLDST | ~1 nM |  |  |  |  |
| Alphabody MB23_hiR-V5 (designed binder, Cationized Alphabody directed against IL-23, with His-tag and V5 tag; Used as control in the BCL-2 family ELISA; also called cationized MB23; control Alphabody MB23-hiR-V5) MSIEQIQKEITTIQEVIAAIQKYIYTMTGGSGGSGGMSIQQIQAAIRRIQRAIRRIQRAIRRMTGSGGGGSGMSIEEIQKQIAAIQEQIVAIYKQIMAMASHHHHHHGKPIPNPLLGLDST |  |  |  |  | no binding (tested: 200 nM) |
